How the values were obtained:
[1] = target: CD177 (allele 263K431G) on 293 cells (human) (UniProt Q8N6Q3); assay: bead-rosette formation; hIgG coupled to M-450 Epoxy Dynabeads, mixed with 293 cells at 3.5 beads per cell; beads on cells with two or more beads counted from one hundred random cells
[2] = target: CD177 (allele 263K431G) on 293 cells (human) (UniProt Q8N6Q3)
[3] = target: CD177 (allele 263K431R) on 293 cells (human) (UniProt Q8N6Q3)
CD177 (allele 263K431R) on 293 cells (human), sequence (Q8N6Q3 22-408): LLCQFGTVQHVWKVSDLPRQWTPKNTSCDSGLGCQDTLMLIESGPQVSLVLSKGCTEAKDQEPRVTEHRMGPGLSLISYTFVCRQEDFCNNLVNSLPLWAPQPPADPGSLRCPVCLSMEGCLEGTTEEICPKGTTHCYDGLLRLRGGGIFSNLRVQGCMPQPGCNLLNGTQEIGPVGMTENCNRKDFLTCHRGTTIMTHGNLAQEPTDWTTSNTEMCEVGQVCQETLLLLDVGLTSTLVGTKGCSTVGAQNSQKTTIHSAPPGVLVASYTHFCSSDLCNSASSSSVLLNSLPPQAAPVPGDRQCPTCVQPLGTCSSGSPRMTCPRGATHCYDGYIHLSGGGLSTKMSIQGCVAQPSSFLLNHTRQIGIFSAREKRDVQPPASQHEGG

CD177 (allele 263K431G) on 293 cells (human), sequence (Q8N6Q3 22-408): as above

bound beads per 100 cells (beads per 100 cells) [1] | ADCC (% specific release) of NK-92 cells expressing the CD177-263K431G allele against SKOV-3 cells with trastuzumab 5 μg/ml, E:T 20:1 [2] | ADCC (% specific release) of NK-92 cells expressing the CD177-263K431R allele against SKOV-3 cells with trastuzumab 5 μg/ml, E:T 20:1; failed to mediate ADCC [3] | Substance
123 |  |  | Human serum IgG (hIgG) (antibody)
 | 8.93% | 0.11% | Trastuzumab/Herceptin (antibody)

Source: publication PMC11316256
